Reference: patent publication US20180155451A1 (published 2018)

T1: FcγRIIa H (human, UniProt P12318 34-217)
T1 construct: extracellular domain; also called FcgRIIa H type; 2aH; not shown: His tag at the C terminus
T1 sequence (looked up): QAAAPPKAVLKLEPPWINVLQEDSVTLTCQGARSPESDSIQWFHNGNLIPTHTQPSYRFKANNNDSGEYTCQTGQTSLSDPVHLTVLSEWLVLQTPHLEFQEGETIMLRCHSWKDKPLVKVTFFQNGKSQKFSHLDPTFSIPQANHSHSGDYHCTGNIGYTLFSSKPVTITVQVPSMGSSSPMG

B1: GpH7-B3 variant S267_02A/GpL16-k0 (antibody, human IgG1, kappa)
heavy: not shown
light: DIVMTQSPLSLPVTPGEPASISCQASESLVHSNRNTYLHWYLQKPGQSPQLLIYKVSNRFSGVPDRFSGSGSGTDFTLKISRVEAEDVGVYYCSQNTHVPPTFGQGTKVEIERTVAAPSVFIFPPSDEQLKSGTASVVCLLNNFYPREAKVQWKVDNALQSGNSQESVTEQDSKDSTYSLSSTLTLSKADYEKHKVYACEVTHQGLSSPVTKSFNRGEC
notes: also called Ho Ab S267_02A
B2: GpH7-B3 variant T335_10E/GpL16-k0 (antibody, human IgG1, kappa)
heavy: not shown
light: B1 light
notes: also called Ho Ab T335_10E
B3: GpH7-B3 variant T335_01G/GpL16-k0 (antibody, human IgG1, kappa)
heavy: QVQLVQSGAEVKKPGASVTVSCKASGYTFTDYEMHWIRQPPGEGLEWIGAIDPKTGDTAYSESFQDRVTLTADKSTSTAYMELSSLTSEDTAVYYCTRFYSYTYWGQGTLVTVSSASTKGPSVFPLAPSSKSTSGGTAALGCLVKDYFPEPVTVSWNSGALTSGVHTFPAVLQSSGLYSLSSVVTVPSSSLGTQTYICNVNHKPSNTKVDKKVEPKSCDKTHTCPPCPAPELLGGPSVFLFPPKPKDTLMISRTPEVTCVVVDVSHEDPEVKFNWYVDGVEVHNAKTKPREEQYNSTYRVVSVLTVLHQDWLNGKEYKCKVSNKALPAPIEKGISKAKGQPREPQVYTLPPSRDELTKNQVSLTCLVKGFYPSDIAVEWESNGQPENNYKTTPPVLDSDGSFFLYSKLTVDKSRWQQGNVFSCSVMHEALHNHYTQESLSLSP
light: B1 light
notes: also called Ho Ab T335_01G
B4: GpH7-B3 variant K334_07I/GpL16-k0 (antibody, human IgG1, kappa)
heavy: not shown
light: B1 light
notes: also called Ho Ab K334_07I
B5: GpH7-A5/GpH7-B3 variant H268_18N/GpL16-k0 (antibody, human IgG1, kappa)
heavy 1: not shown
heavy 2: not shown
light: B1 light
notes: also called He Ab H268_18N
B6: GpH7-B3 variant K334_08L/GpL16-k0 (antibody, human IgG1, kappa)
heavy: not shown
light: B1 light
notes: also called Ho Ab K334_08L
B7: GpH7-B3 variant L328_06M/GpL16-k0 (antibody, human IgG1, kappa)
heavy: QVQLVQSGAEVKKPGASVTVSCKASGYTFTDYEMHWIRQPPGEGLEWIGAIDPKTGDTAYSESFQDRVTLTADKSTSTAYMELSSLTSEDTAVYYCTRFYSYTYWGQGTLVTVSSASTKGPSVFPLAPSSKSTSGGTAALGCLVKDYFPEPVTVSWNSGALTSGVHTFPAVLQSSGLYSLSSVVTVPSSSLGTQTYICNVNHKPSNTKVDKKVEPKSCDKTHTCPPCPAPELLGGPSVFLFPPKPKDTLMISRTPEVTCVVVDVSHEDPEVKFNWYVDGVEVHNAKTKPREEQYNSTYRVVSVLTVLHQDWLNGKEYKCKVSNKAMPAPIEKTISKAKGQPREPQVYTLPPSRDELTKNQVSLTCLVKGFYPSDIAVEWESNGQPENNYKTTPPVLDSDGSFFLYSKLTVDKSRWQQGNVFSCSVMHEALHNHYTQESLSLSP
light: B1 light
notes: also called Ho Ab L328_06M
B8: GpH7-B3 variant S324_06M/GpL16-k0 (antibody, human IgG1, kappa)
heavy: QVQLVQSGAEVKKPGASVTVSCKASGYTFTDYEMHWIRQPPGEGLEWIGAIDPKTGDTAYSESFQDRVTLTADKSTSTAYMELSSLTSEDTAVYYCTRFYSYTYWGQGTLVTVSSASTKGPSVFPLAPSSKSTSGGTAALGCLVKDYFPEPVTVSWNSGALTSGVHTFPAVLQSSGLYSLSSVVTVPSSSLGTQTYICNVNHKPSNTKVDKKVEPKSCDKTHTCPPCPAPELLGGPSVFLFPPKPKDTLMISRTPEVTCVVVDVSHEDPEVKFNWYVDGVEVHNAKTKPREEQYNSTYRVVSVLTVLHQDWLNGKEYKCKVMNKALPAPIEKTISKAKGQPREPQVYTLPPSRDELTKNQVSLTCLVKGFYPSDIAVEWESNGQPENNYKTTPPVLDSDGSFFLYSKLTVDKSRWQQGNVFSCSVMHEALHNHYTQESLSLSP
light: B1 light
notes: also called Ho Ab S324_06M
B9: GpH7-B3 variant K334_15Y/GpL16-k0 (antibody, human IgG1, kappa)
heavy: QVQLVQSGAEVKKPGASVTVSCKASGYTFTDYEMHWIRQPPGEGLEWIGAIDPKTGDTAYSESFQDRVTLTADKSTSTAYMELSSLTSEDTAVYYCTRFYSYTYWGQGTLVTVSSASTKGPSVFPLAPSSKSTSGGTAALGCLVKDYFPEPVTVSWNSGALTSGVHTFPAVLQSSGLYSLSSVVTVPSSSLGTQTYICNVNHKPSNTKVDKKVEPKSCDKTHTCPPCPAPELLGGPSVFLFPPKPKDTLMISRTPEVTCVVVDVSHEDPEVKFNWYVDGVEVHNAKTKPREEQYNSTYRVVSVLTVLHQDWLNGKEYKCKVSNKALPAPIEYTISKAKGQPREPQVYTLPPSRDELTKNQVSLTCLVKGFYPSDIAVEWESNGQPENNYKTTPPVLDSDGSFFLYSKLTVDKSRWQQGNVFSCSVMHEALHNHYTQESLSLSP
light: B1 light
notes: also called Ho Ab K334_15Y
B10: GpH7-A5/GpH7-B3 variant I332_19Q/GpL16-k0 (antibody, human IgG1, kappa)
heavy 1: not shown
heavy 2: not shown
light: B1 light
notes: also called He Ab I332_19Q
B11: GpH7-A5/GpH7-B3 variant I332_09D/GpL16-k0 (antibody, human IgG1, kappa)
heavy 1: not shown
heavy 2: not shown
light: B1 light
notes: also called He Ab I332_09D
B12: GpH7-B3 variant L328_13S/GpL16-k0 (antibody, human IgG1, kappa)
heavy: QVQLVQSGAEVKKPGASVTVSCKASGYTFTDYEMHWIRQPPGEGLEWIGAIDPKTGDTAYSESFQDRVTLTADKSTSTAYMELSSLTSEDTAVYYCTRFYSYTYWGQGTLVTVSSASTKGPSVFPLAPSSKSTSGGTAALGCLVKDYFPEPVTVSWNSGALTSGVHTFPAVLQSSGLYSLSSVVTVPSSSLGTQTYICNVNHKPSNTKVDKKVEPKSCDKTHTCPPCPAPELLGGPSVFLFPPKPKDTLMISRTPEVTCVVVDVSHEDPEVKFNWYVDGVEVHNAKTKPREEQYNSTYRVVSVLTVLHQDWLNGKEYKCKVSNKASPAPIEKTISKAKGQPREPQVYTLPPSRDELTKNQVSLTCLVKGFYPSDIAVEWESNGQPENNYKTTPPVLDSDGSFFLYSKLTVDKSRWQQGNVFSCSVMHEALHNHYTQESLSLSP
light: B1 light
notes: also called Ho Ab L328_13S
B13: GpH7-A5/GpH7-B3 variant I336_06M/GpL16-k0 (antibody, human IgG1, kappa)
heavy 1: not shown
heavy 2: not shown
light: B1 light
notes: also called He Ab I336_06M
B14: GpH7-B3 variant K326_09D/GpL16-k0 (antibody, human IgG1, kappa)
heavy: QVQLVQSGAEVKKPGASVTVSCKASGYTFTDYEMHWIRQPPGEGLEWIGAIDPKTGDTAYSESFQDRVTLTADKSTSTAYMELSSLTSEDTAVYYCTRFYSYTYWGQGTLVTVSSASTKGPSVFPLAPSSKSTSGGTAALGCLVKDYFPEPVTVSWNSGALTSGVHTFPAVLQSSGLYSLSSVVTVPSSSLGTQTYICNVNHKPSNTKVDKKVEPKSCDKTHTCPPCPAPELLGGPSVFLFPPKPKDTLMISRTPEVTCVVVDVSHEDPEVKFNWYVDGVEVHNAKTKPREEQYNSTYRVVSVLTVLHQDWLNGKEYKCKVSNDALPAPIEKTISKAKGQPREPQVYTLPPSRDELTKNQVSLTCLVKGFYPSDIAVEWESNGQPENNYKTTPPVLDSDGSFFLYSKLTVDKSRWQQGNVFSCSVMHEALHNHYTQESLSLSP
light: B1 light
notes: also called Ho Ab K326_09D
B15: GpH7-A5/GpH7-B3 variant H268_09D/GpL16-k0 (antibody, human IgG1, kappa)
heavy 1: not shown
heavy 2: not shown
light: B1 light
notes: also called He Ab H268_09D
B16: GpH7-B3 variant K334_14T/GpL16-k0 (antibody, human IgG1, kappa)
heavy: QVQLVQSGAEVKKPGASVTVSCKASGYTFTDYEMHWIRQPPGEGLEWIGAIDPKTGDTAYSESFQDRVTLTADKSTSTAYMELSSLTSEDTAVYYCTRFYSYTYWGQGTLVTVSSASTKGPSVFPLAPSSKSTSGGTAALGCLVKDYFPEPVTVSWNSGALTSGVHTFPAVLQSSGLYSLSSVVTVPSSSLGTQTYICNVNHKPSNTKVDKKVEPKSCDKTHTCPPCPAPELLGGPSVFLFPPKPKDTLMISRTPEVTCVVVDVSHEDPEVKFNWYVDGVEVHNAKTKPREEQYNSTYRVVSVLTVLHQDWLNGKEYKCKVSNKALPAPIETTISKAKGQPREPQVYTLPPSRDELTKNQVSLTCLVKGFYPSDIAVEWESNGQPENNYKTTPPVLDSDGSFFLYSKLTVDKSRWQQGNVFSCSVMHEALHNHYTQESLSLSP
light: B1 light
notes: also called Ho Ab K334_14T
B17: GpH7-B3 variant S337_09D/GpL16-k0 (antibody, human IgG1, kappa)
heavy: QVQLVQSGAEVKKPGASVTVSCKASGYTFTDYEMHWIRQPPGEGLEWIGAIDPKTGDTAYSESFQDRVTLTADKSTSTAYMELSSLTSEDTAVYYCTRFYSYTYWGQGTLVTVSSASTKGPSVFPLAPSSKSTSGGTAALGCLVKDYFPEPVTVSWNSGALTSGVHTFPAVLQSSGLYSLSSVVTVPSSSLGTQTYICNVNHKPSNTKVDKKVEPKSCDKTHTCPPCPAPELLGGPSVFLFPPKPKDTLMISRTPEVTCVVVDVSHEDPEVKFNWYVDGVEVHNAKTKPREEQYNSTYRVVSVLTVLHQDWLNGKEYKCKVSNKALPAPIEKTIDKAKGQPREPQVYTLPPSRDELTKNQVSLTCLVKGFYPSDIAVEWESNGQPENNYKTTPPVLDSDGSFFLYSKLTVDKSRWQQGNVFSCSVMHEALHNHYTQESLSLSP
light: B1 light
notes: also called Ho Ab S337_09D
B18: GpH7-A5/GpH7-B3 variant I332_14T/GpL16-k0 (antibody, human IgG1, kappa)
heavy 1: not shown
heavy 2: not shown
light: B1 light
notes: also called He Ab I332_14T
B19: GpH7-B3 variant P271_01G/GpL16-k0 (antibody, human IgG1, kappa)
heavy: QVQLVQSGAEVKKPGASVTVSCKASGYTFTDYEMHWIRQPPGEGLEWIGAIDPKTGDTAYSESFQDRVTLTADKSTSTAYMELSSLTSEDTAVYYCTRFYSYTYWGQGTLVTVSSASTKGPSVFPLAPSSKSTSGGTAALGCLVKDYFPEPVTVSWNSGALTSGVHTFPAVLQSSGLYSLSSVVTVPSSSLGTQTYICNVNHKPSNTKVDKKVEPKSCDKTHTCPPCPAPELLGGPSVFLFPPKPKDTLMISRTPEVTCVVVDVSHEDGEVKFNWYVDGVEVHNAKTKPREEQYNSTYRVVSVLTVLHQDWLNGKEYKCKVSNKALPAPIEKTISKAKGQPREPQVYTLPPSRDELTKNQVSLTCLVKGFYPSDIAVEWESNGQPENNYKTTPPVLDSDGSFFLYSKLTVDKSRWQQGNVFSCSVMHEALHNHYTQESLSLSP
light: B1 light
notes: also called Ho Ab P271_01G
B20: GpH7-A5/GpH7-B3 variant I332_04F/GpL16-k0 (antibody, human IgG1, kappa)
heavy 1: not shown
heavy 2: not shown
light: B1 light
notes: also called He Ab I332_04F
B21: GpH7-B3 variant K334_04F/GpL16-k0 (antibody, human IgG1, kappa)
heavy: not shown
light: B1 light
notes: also called Ho Ab K334_04F
B22: GpH7-A5/GpH7-B3 variant G236_07I/GpL16-k0 (antibody, human IgG1, kappa)
heavy 1: not shown
heavy 2: not shown
light: B1 light
notes: also called He Ab G236_07I
B23: GpH7-B3 variant Q295_05P/GpL16-k0 (antibody, human IgG1, kappa)
heavy: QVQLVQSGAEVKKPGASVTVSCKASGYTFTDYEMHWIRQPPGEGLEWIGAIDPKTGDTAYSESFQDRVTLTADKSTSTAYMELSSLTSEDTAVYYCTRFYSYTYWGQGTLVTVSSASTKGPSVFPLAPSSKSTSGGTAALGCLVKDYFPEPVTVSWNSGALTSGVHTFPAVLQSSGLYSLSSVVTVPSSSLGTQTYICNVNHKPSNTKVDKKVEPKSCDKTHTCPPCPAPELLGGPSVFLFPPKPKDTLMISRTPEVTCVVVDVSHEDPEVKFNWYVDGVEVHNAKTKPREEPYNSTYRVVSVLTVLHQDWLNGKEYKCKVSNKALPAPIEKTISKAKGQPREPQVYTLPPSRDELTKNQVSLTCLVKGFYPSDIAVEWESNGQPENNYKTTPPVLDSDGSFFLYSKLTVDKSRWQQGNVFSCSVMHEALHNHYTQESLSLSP
light: B1 light
notes: also called Ho Ab Q295_05P
B24: GpH7-B3 variant L235_20W/GpL16-k0 (antibody, human IgG1, kappa)
heavy: not shown
light: B1 light
notes: also called Ho Ab L235_20W
B25: GpH7-B3 variant K334_03V/GpL16-k0 (antibody, human IgG1, kappa)
heavy: not shown
light: B1 light
notes: also called Ho Ab K334_03V
B26: GpH7-B3 variant S324_09D/GpL16-k0 (antibody, human IgG1, kappa)
heavy: not shown
light: B1 light
notes: also called Ho Ab S324_09D
B27: GpH7-B3 variant K326_14T/GpL16-k0 (antibody, human IgG1, kappa)
heavy: not shown
light: B1 light
notes: also called Ho Ab K326_14T
B28: GpH7-B3 variant L328_02A/GpL16-k0 (antibody, human IgG1, kappa)
heavy: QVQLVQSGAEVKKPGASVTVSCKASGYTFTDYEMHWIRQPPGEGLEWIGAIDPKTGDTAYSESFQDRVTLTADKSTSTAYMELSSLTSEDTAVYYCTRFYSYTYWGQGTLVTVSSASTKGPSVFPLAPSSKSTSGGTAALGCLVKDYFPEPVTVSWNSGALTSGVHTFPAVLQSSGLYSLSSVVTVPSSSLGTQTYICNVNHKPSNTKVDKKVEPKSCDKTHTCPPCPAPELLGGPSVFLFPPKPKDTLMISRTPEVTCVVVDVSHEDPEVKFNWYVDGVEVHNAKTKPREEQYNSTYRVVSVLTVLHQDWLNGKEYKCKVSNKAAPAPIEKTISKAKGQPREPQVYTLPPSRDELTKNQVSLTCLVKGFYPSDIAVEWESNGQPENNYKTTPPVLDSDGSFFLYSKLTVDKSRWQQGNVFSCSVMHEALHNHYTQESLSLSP
light: B1 light
notes: also called Ho Ab L328_02A
B29: GpH7-A5/GpH7-B3 variant G236_03V/GpL16-k0 (antibody, human IgG1, kappa)
heavy 1: not shown
heavy 2: not shown
light: B1 light
notes: also called He Ab G236_03V
B30: GpH7-B3 variant K326_19Q/GpL16-k0 (antibody, human IgG1, kappa)
heavy: not shown
light: B1 light
notes: also called Ho Ab K326_19Q

Molecular target: T1, FcγRIIa H
Assay: SPR Biacore, relative binding

Row | Ho/Con_2aH | He/Con_2aH | Binder
1 | 120 % of GpH7-B3/GpL16-k0 (=100) |  | B1
2 | 105 % of GpH7-B3/GpL16-k0 (=100) |  | B2
3 | 101 % of GpH7-B3/GpL16-k0 (=100) |  | B3
4 | 116 % of GpH7-B3/GpL16-k0 (=100) |  | B4
5 |  | 112 % of GpH7-A5/GpH7-B3/GpL16-k0 (=100) | B5
6 | 103 % of GpH7-B3/GpL16-k0 (=100) |  | B6
7 | 100 % of GpH7-B3/GpL16-k0 (=100) |  | B7
8 | 123 % of GpH7-B3/GpL16-k0 (=100) |  | B8
9 | 110 % of GpH7-B3/GpL16-k0 (=100) |  | B9
10 |  | 108 % of GpH7-A5/GpH7-B3/GpL16-k0 (=100) | B10
11 |  | 118 % of GpH7-A5/GpH7-B3/GpL16-k0 (=100) | B11
12 | 131 % of GpH7-B3/GpL16-k0 (=100) |  | B12
13 |  | 106 % of GpH7-A5/GpH7-B3/GpL16-k0 (=100) | B13
14 | 113 % of GpH7-B3/GpL16-k0 (=100) |  | B14
15 |  | 133 % of GpH7-A5/GpH7-B3/GpL16-k0 (=100) | B15
16 | 105 % of GpH7-B3/GpL16-k0 (=100) |  | B16
17 | 107 % of GpH7-B3/GpL16-k0 (=100) |  | B17
18 |  | 115 % of GpH7-A5/GpH7-B3/GpL16-k0 (=100) | B18
19 | 110 % of GpH7-B3/GpL16-k0 (=100) |  | B19
20 |  | 104 % of GpH7-A5/GpH7-B3/GpL16-k0 (=100) | B20
21 | 103 % of GpH7-B3/GpL16-k0 (=100) |  | B21
22 |  | 115 % of GpH7-A5/GpH7-B3/GpL16-k0 (=100) | B22
23 | 106 % of GpH7-B3/GpL16-k0 (=100) |  | B23
24 | 112 % of GpH7-B3/GpL16-k0 (=100) |  | B24
25 | 111 % of GpH7-B3/GpL16-k0 (=100) |  | B25
26 | 113 % of GpH7-B3/GpL16-k0 (=100) |  | B26
27 | 118 % of GpH7-B3/GpL16-k0 (=100) |  | B27
28 | 134 % of GpH7-B3/GpL16-k0 (=100) |  | B28
29 |  | 119 % of GpH7-A5/GpH7-B3/GpL16-k0 (=100) | B29
30 | 100 % of GpH7-B3/GpL16-k0 (=100) |  | B30
